In patent US20040253214A1:

Biological target: bovine EGF receptor on MDBK cells (bovine) (UniProt F1N7F3)
Experiment: cell-based or functional assay

“EXGaLVMoT chimeric envelope (EGF displayed through a factor Xa-cleavable linker as an N-terminal extension of the Gibbon Ape Leukaemia virus SU glycoprotein), on retroviral vector particles (from UniProt P01133 971-1023; P21415 43-653; P03385 633-665)” gave a Titre of GaLV vectors on EGF-R positive cells, MDBK, +Xa (displayed EGF domain cleaved with factor Xa before infection) of 12 efu/ml and a Titre of GaLV vectors on EGF-R positive cells, MDBK, -Xa of less than 1 efu/ml.
